From publication PMC2064744 (The Journal of Cell Biology, 2007)

T1: tandem L27 domain of rat CASK (L27NL27C_CASK, residues 329-460) (rat, UniProt Q62915 329-460)
T1 sequence: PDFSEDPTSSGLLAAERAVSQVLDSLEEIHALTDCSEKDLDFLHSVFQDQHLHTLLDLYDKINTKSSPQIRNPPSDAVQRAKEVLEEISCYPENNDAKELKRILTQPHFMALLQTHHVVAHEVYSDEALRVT

T2: tandem PALS L27 domains
T2 chain: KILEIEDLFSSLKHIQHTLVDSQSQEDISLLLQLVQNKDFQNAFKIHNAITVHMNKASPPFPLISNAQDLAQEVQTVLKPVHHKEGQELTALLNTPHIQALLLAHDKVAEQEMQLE


Columns and labels:
[1] = molecular target: T1, tandem L27 domain of rat CASK …; experiment: SEC
tandem PALS L27 domains = molecular target: T2, tandem PALS L27 domains; experiment: SEC

Row | Binder | stoichiometry N [1] | stoichiometry N (tandem PALS L27 domains)
1 | L27 domain of mouse MALS (L27_MALS, residues 2-78) (domain or fragment) AALGEPVRLERDICRAIELLEKLQRSGEVPPQKLQALQRVLQSEFCNAVREVYEHVYETVDISSSPEVRANATAKAT | 1 | –
2 | MALS L27 (in the MALS/PALS/PATJ L27 complex, unpublished data) (domain or fragment) AALVEPLGLERDVSRAVELLERLQRSGELPPQKLQALQRVLQSRFCSAIREVYEQLYDTLDITGSAEVRAHATAKAT | – | 1
3 | PATJ L27 (domain or fragment) MPENPAAEKMQVLQVLDRLRGKLQEKGDTTQNEKLSAFYETLKSPLFNQILTLQQSIKQLKGQLS | – | 1
4 | L27 domain of rat DLG (L27DLG, residues 1-65) (domain or fragment) MPVRKQDTQRALHLLEEYRSKLSQTEDRQLRSSIERVISIFQSNLFQALIDIQEFYEVTLLDNPK | 1 | –
